Data: publication PMC6091870 (Cell reports, 2018)
Values belong to the binder of their own block, whether it stands above or below them.

Legend:
[1] = target: T1, ACAD9 (mouse (endogenous in mouse heart)), Q8JZN5; test: native gel or EMSA; settings: remark: other sources report otherwise
T1 chain: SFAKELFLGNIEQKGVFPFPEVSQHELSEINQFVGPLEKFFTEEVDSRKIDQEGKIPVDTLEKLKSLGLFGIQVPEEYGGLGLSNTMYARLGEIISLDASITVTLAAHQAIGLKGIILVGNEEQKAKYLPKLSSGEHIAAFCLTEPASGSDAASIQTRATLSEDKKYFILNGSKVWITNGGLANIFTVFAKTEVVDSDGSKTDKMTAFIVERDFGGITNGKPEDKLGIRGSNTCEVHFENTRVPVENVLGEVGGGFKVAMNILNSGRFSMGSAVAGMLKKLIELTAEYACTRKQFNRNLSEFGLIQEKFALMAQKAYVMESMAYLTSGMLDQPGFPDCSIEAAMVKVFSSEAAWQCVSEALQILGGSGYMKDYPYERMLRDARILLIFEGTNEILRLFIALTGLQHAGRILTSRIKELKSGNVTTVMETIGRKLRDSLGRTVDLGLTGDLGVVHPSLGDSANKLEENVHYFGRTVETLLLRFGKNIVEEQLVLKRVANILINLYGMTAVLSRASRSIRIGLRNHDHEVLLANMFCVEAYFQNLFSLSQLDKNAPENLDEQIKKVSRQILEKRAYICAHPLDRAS

[2] = target: the molecule itself; test: native gel or EMSA

- stoichiometry N [1]: 2
B1: ACAD9, Q8JZN5 42-625 (enzyme)
chain: T1 chain

B2: oxoglutarate dehydrogenase (OGDH) (enzyme, mouse (endogenous in mouse heart), UniProt Q60597 41-1023, looked up)
chain: SAPVAAEPFLSGTSSNYVEEMYCAWLENPKSVHKSWDIFFRNTNAGAPPGTAYQSPLSLSRSSLATMAHAQSLVEAQPNVDKLVEDHLAVQSLIRAYQIRGHHVAQLDPLGILDADLDSSVPADIISSTDKLGFYGLHESDLDKVFHLPTTTFIGGQEPALPLREIIRRLEMAYCQHIGVEFMFINDLEQCQWIRQKFETPGIMQFTNEEKRTLLARLVRSTRFEEFLQRKWSSEKRFGLEGCEVLIPALKTIIDMSSANGVDYVIMGMPHRGRLNVLANVIRKELEQIFCQFDSKLEAADEGSGDMKYHLGMYHRRINRVTDRNITLSLVANPSHLEAADPVVMGKTKAEQFYCGDTEGKKVMSILLHGDAAFAGQGIVYETFHLSDLPSYTTHGTVHVVVNNQIGFTTDPRMARSSPYPTDVARVVNAPIFHVNSDDPEAVMYVCKVAAEWRNTFHKDVVVDLVCYRRNGHNEMDEPMFTQPLMYKQIRKQKPVLQKYAELLVSQGVVNQPEYEEEISKYDKICEEAFTRSKDEKILHIKHWLDSPWPGFFTLDGQPRSMTCPSTGLEEDVLFHIGKVASSVPVENFTIHGGLSRILKTRRELVTNRTVDWALAEYMAFGSLLKEGIHVRLSGQDVERGTFSHRHHVLHDQNVDKRTCIPMNHLWPNQAPYTVCNSSLSEYGVLGFELGFAMASPNALVLWEAQFGDFNNMAQCIIDQFICPGQAKWVRQNGIVLLLPHGMEGMGPEHSSARPERFLQMCNDDPDVLPDLQEENFDINQLYDCNWIVVNCSTPGNFFHVLRRQILLPFRKPLIVFTPKSLLRHPEARTSFDEMLPGTHFQRVIPENGPAAQDPHKVKRLLFCTGKVYYDLTRERKARNMEEEVAITRIEQLSPFPFDLLLKEAQKYPNAELAWCQEEHKNQGYYDYVKPRLRTTIDRAKPVWYAGRDPAAAPATGNKKTHLTELQRFLDTAFDLDAFKKFS
- stoichiometry N [2]: 2
